In article PMC6365974, “Characterization of an Aldehyde Oxidoreductase From the Mesophilic Bacterium Aromatoleum aromaticum EbN1, a Member of a New Subfamily of Tungsten-Containing Enzymes” (Frontiers in Microbiology, 2019):
Blank lines part the entries; values can stand above or below the molecule they belong to.

Key:
[1] = test system: c1ccc(C[n+]2ccc(-c3cc[n+](Cc4ccccc4)cc3)cc2)cc1; assay: purified protein; conditions: artificial electron acceptor, phenylacetaldehyde as co-substrate, 100 mM Tris-HCl pH 8.0, 28°C, probably reacts at an Fe-S cluster
AORAa = molecular target: T1, AORAa (Aromatoleum aromaticum, UniProt Q5P143); assay: flavin fluorescence of supernatant of heat-denatured enzyme, phosphodiesterase treatment; assay type: binding; conditions: co-purified cofactor; site AorC (predicted)
T1 construct: gene aorB; native heterohexamer α2β2γ2, ca. 280 kDa (subunits 66, 46, 17 kDa), purified from phenylalanine-grown Δpdh cells, no tag; with Iron-sulfur protein, aldehyde oxidoreductase small subunit AorA

[2] = molecular target: T2, AorB, large W-cofactor binding subunit of aldehyde oxidoreductase AORAa from Aromatoleum aromaticum EbN1 (Aromatoleum aromaticum EbN1, UniProt Q5P143 1-616); assay: co-purification by enzyme activity (DEAE-sepharose, hydroxyapatite, Superdex 200 gel filtration); endogenous enzyme purified from cell extract under anoxic conditions, followed by AOR activity; subunits separated by SDS-PAGE and identified by MALDI-TOF of tryptic fragments; conditions: partners not purified
T2 construct: AorB, large subunit (66 kDa on SDS-PAGE) of the tungsten-containing aldehyde oxidoreductase of Aromatoleum aromaticum EbN1; also called large subunit; aorB gene product; source: purified from A. aromaticum EbN1 strain SR7Δpdh as part of AORAa (DEAE-sepharose, hydroxyapatite, Superdex 200)
T2 sequence (looked up): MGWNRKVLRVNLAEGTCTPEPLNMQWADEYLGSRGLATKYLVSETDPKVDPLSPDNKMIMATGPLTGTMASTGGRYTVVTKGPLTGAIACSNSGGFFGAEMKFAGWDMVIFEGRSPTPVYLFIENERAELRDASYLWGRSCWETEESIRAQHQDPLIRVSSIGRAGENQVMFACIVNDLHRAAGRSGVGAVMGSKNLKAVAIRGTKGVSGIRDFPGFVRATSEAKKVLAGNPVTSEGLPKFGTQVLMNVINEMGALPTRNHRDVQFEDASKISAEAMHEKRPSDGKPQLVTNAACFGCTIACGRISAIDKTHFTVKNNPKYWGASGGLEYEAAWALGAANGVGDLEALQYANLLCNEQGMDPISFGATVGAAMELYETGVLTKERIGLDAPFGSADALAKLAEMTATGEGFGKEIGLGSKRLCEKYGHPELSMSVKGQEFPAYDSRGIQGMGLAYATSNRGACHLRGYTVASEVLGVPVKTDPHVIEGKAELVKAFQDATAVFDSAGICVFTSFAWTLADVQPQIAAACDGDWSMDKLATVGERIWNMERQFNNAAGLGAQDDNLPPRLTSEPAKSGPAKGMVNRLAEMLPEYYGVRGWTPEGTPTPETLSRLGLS

purified protein [3] = substrate: NC(=O)c1ccc[n+]([C@@H]2O[C@H](COP(=O)(O)OP(=O)(O)OC[C@H]3O[C@@H](n4cnc5c(N)ncnc54)[C@H](O)[C@@H]3O)[C@@H](O)[C@H]2O)c1; assay: purified protein; assay type: biochemical, Aromatoleum aromaticum; conditions: electron acceptor, phenylacetaldehyde as co-substrate, 100 mM Tris-HCl pH 8.0, 28°C, site AorC (FAD, predicted)
purified protein [4] = substrate: O=Cc1ccccc1; assay: purified protein; conditions: electron acceptor benzyl viologen, 100 mM Tris-HCl pH 8.0, 28°C, site AorB (W-cofactor, predicted)
purified protein [5] = substrate: O=CCc1ccccc1; assay: purified protein; conditions: electron acceptor benzyl viologen, 100 mM Tris-HCl pH 8.0, 28°C, site AorB (W-cofactor, predicted)
purified protein [6] = substrate: CC=O; assay: purified protein; conditions: electron acceptor benzyl viologen, 100 mM Tris-HCl pH 8.0, 28°C, site AorB (W-cofactor, predicted)

Molecule: AORAa (Aromatoleum aromaticum EbN1)
Km [1]: 23 µM | Vmax [1]: 21.2 µmol/min/mg | kcat [1]: 91 s⁻¹ | kcat/Km [1]: 3.96e+06 M⁻¹ s⁻¹

Molecule: Cc1cc2nc3c(=O)[nH]c(=O)nc-3n(C[C@H](O)[C@H](O)[C@H](O)COP(=O)(O)OP(=O)(O)OC[C@H]3O[C@@H](n4cnc5c(N)ncnc54)[C@H](O)[C@@H]3O)c2cc1C [FAD]
flavin fluorescence of supernatant of heat-denatured enzyme, phosphodiesterase t (AORAa): The presence of FAD in AORAa was confirmed by fluorescence spectroscopy

binding result [2]: binds
B1: AorC, medium FAD-containing subunit of aldehyde oxidoreductase AORAa from Aromatoleum aromaticum EbN1 (natural protein, UniProt Q5P142 1-424, looked up)
chain: MKHVILGNGPAGVIAAETLRRAAPTDDILLFGSEDAPPYSRMAIPYLLEGNIDESGTWLRKSPGHFDRLRIHEMRGRAVSLDSERRRILFDDGHFESWDRLLIATGSHPVRPPIPGIDLPEVQTCWTLEDARAIARFATPGARVLQLGAGFIGCIIMEALAARGVELTVVEMGDRMVPRMMTPTAGGMIRKWVEDQGVRVVTNAGVSRIDCRASNDAPLDVTLSTGEVVVADLVIVAAGVAPNIAFLEATPVHVAKGVLVDDRLQTSVPGIFAAGDVAEAPDLFTGAHLVAAIQPNAADQARVAALNMAGHEARLKGVLAINVLDTLGLISSSFGQWWGEERERGGAGVEHVDEAAYRYLSLQFKDDVLIGATSIGLTEHVGALRGLIHGRVRLGEWKERLLHSPLQFVDAYIARSQQPMALVR
notes: AorC, medium-sized subunit (46 kDa on SDS-PAGE) of the tungsten-containing aldehyde oxidoreductase of Aromatoleum aromaticum EbN1; predicted FAD-containing; also called medium subunit; medium-sized subunit; source: purified from A. aromaticum EbN1 strain SR7Δpdh as part of AORAa (DEAE-sepharose, hydroxyapatite, Superdex 200)

binding result [2]: binds
B2: AorA, small subunit of aldehyde oxidoreductase AORAa from Aromatoleum aromaticum EbN1 (natural protein, UniProt Q5P144 1-158, looked up)
chain: MWKSLHIDPAKCTGCLQCEMACSYEHTGVINPSKSRIKVFSFEHEGRKVPYTCTQCTEAWCLHSCPVDAIRLDLTTGAKMVFEDTCVGCKVCTIACPFGTINYNQDTGKVQKCDLCEGDPACAKACPTAAITYIDADWTGLARMQAWAAKANTPASAA
notes: AorA, small subunit (17 kDa on SDS-PAGE) of the tungsten-containing aldehyde oxidoreductase of Aromatoleum aromaticum EbN1; predicted to contain four [Fe4S4] clusters; also called electron transfer subunit; aorA gene product; source: purified from A. aromaticum EbN1 strain SR7Δpdh as part of AORAa (DEAE-sepharose, hydroxyapatite, Superdex 200)

B3: AORAa (Aromatoleum aromaticum EbN1) (protein)
chain: T2 sequence (looked up)
Km (purified protein [3]): 63 µM | Vmax (purified protein [3]): 12.5 µmol/min/mg | kcat (purified protein [3]): 54 s⁻¹ | kcat/Km (purified protein [3]): 860000 M⁻¹ s⁻¹ | Km (purified protein [4]): 67 µM | Vmax (purified protein [4]): 21.4 µmol/min/mg | kcat (purified protein [4]): 92 s⁻¹ | kcat/Km (purified protein [4]): 1.38e+06 M⁻¹ s⁻¹ | Km (purified protein [5]): 82 µM | Vmax (purified protein [5]): 18.9 µmol/min/mg | kcat (purified protein [5]): 81 s⁻¹ | kcat/Km (purified protein [5]): 990000 M⁻¹ s⁻¹ | Km (purified protein [6]): 141 µM | Vmax (purified protein [6]): 23.8 µmol/min/mg | kcat (purified protein [6]): 103 s⁻¹ | kcat/Km (purified protein [6]): 730000 M⁻¹ s⁻¹
